From the supplement of paper PMC10724198

What was measured:
Saccharomyces cerevisiae [1] = experiment: protein stability index of tFT-peptide fusion in wild type (PSI (0-1 scale)); higher = more stable (slower turnover); settings: genetic background: wild type
Method: (§1)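 MPS profiling in S. cerevisiae of two library types built from selected 12-aa C-degron peptides (IN1, IN2, LN1, LN3, VN2, R1-R5, W1-W3, Atg1 and Rpa12 C-termini): saturation mutagenesis libraries and C-terminal +1 capping libraries (13 aa). Each peptide is fused to the C-terminus of a sfGFP-mCherry timer, after a GGGS linker. Cells are FACS-sorted into 8 mCherry/sfGFP bins and sequenced. PSI runs from 0 (unstable) to 1 (stable), measured once in wild type and in the das1Δ or doa10Δ background.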

Saccharomyces cerevisiae [2] = experiment: protein stability index of tFT-peptide fusion in deletion strain of DAS1 (PSI (0-1 scale)); higher = more stable (slower turnover)
Method: as §1
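Wherever protein stability index of tFT-peptide fusion in deletion strain of DAS1 is given: PSI is a weighted mean of each variant's read distribution over the sorted stability bins, computed only for variants having over 10 reads in total.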
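Wherever protein stability index of tFT-peptide fusion in wild type is given: PSI derived as read-weighted mean over the 8 sorting bins, only variants exceeding 10 total reads kept, mCherry placed adjacent to the peptide and sfGFP distal.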

| Sequence | protein stability index (Saccharomyces cerevisiae [1]) | protein stability index (Saccharomyces cerevisiae [2]) |
| --- | --- | --- |
| VRGAVGGYRLVG | 0.658 | 0.681 |
| KTSCGYKFRTNN | 0.225 | 0.679 |
| FLIQPLPVQFLN | 0.0527 | 0.582 |
| PSLAASFWRVDG | 0.68 | 0.7 |
| FSMRWTFRYNVN | 0.214 | 0.568 |
| LVVYLSGVACIN | 0.181 | 0.264 |
| CTSCGYKFRTNNP | 0.698 | 0.69 |
| KKHKKGQKIKIN | 0.294 | 0.576 |
| CTSVGYKFRTNN | 0.176 | 0.682 |
| ARWRVGTWRGAS | 0.535 | 0.687 |
| PSLAHSFWRVVG | 0.167 | 0.669 |
| ELIQPLPVQFLN | 0.0675 | 0.612 |
| LKILRQYMNHQN | 0.242 | 0.675 |
| PAKRNHLIKLLN | 0.131 | 0.618 |
| FSMRWTFRYWVD | 0.46 | 0.467 |
| PSLAASCWRVVG | 0.143 | 0.675 |
| RLIWPLPVQFLN | 0.0399 | 0.57 |
| VRGAVPGWRLVG | 0.149 | 0.678 |
| CTSCGYKWRTNN | 0.153 | 0.659 |
| PSMRWTFRYWVN | 0.0877 | 0.571 |

| Sequence | protein stability index (Saccharomyces cerevisiae [1]) | protein stability index (Saccharomyces cerevisiae [2]) |
| --- | --- | --- |
| FSIRWTFRYWVN | 0.0207 | 0.335 |
| LVVYLSIVACIN | 0.0584 | 0.0849 |
| FSMRVTFRYWVN | 0.0315 | 0.352 |
| APWRVGLWRGAS | 0.512 | 0.701 |
| RAIQPLPVQFLN | 0.121 | 0.674 |
| ARWRVGLWRGAR | 0.663 | 0.666 |
| VRGAVGGWRLVW | 0.714 | 0.671 |
| FSMRWTFRSWVN | 0.272 | 0.515 |
| QDKRNHLIKLLN | 0.0816 | 0.592 |
| CTSCGYKFRTNNI | 0.716 | 0.699 |
| VRWAVGGWRLVG | 0.0824 | 0.685 |
| HDKRNHLIKLLN | 0.077 | 0.581 |
| RLIPPLPVQFLN | 0.0667 | 0.576 |
| ARNRVGLWRGAS | 0.606 | 0.693 |
| YKILRQKMNHQN | 0.196 | 0.668 |
| LKILRQKMNLQN | 0.221 | 0.666 |
| PDKRNHLIILLN | 0.107 | 0.66 |
| PDKRNHLIVLLN | 0.148 | 0.637 |
| LSMRWTFRYWVN | 0.0756 | 0.531 |
| VRGAVGGWRLVGS | 0.174 | 0.67 |

| Sequence | protein stability index (Saccharomyces cerevisiae [1]) | protein stability index (Saccharomyces cerevisiae [2]) |
| --- | --- | --- |
| TSMRWTFRYWVN | 0.0899 | 0.696 |
| FSMRWTFRYWVNN | 0.137 | 0.558 |
| LVVYLSSVACIN | 0.0245 | 0.0579 |
| ARLRVGLWRGAS | 0.581 | 0.69 |
| CTSCGYKFRTNNR | 0.707 | 0.705 |
| FSMRWSFRYWVN | 0.0724 | 0.544 |
| PSLAASFWRVVGF | 0.692 | 0.693 |
| FSMRWLFRYWVN | 0.0905 | 0.573 |
| PSLAASFWRRVG | 0.128 | 0.69 |
| PSLAALFWRVVG | 0.129 | 0.674 |
| LKILRQPMNHQN | 0.658 | 0.68 |
| VRGAKGGWRLVG | 0.28 | 0.67 |
| RLIQPLPVQFLNK | 0.647 | 0.676 |
| KKHKKGQKQKIS | 0.101 | 0.607 |
| ARWRVLLWRGAS | 0.4 | 0.628 |
| KKHKKGQKQKIL | 0.222 | 0.595 |
| FSMRWTFRYWRN | 0.653 | 0.531 |
| LLVYLSCVACIN | 0.0174 | 0.0429 |
